Measurements reported in patent US20200199217A1 (published 2020).
Each block holds one binder with its values, some of them ahead of it.

Columns and labels:
hu-IL-36β [1] = target: T1, hu-IL-36β (human); assay: cell-based or functional assay
T1 chain: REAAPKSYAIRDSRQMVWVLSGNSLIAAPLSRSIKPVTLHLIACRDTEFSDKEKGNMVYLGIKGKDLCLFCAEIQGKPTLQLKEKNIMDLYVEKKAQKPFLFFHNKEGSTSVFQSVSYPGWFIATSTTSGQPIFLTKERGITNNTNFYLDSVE

cy-IL-36α = target: T2, cy-IL-36α (cynomolgus monkey, UniProt Q9UHA7 14-158 (human entry), limits assumed); assay: cell-based or functional assay
T2 chain: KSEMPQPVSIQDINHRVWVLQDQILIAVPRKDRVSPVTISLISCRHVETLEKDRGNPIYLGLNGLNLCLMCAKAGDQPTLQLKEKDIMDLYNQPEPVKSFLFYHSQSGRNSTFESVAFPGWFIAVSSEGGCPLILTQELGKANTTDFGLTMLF

cy-IL-36γ = target: T3, cy-IL-36γ (cynomolgus monkey, UniProt Q9NZH8 18-167 (human entry), limits assumed); assay: cell-based or functional assay
T3 chain: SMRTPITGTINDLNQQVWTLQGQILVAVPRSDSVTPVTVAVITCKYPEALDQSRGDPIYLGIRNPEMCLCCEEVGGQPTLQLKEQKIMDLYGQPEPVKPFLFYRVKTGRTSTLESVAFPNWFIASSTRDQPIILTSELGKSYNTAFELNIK

hu-IL-36α [2] = target: T4, hu-IL-36α (human, UniProt Q9UHA7 6-158); assay: cell-based or functional assay
T4 sequence: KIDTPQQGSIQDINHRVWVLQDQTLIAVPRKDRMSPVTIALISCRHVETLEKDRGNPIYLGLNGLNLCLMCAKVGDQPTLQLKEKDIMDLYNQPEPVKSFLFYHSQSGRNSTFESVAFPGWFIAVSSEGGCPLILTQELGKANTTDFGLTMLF

hu-IL-36γ [3] = target: T5, hu-IL-36γ (human, UniProt Q9NZH8 18-169); assay: cell-based or functional assay
T5 sequence: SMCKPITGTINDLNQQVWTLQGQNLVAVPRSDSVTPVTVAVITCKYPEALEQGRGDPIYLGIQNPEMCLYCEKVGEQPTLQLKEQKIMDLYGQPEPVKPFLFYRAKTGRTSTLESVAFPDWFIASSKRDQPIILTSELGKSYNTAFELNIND

hu-IL-36β [4] = target: T1, hu-IL-36β; assay: cell-based or functional assay
hu-IL-36α [5] = target: T4, hu-IL-36α; assay: cell-based or functional assay; remark: listed apart in the source
hu-IL-36γ [6] = target: T5, hu-IL-36γ; assay: cell-based or functional assay; remark: listed apart in the source
hu-IL-36β [7] = target: T1, hu-IL-36β; assay: SPR (Biacore 8K), biotinylated hu-IL-36β captured, Fab injected, 37 C
Method: Briefly, a 1:4 dilution of Biotin CAPture Reagent (GE) into HBS-EP buffer (0.01 M HEPES pH 7.4, 0.15 M NaCl, 3 mM EDTA, 0.005% Surfactant P20) was applied to a CAP sensor chip at 2 uL/min flow rate. For kinetics measurements, 6 nM biotinylated human IL-36β was captured at 10 uL/min to achieve ˜50 response units in the second flow cell (FC2). FC1 was kept as a reference. Next, […] serial dilutions of Fab in HBS-P buffer (0.01M HEPES pH 7.4, 0.15M NaCl, 0.005% surfactant P20) from low (3.125 nM) to high (200 nM) were injected (flow rate: 10 uL/min) at 37° C. The sensorgram was recorded and subject to reference and buffer subtraction before evaluating by BIACORE® 8K Evaluation Software (version 1.1.1.7442). Association rates (kₒₙ) and dissociation rates (koff) were calculated using a simple one-to-one Langmuir binding model.

cy-IL-36β = target: T6, cy-IL-36β (cynomolgus monkey); assay: cell-based or functional assay
T6 chain: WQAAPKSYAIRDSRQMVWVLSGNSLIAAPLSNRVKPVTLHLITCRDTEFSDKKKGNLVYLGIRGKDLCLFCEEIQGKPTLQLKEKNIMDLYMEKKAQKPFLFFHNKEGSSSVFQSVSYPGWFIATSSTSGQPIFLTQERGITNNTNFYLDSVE

B2: mAb2.0 IgG (antibody, V domains shown)
VH: QLQLQESGPGLVKPSETLSLTCTVSGGSISTSSYYWGWIRQPPGKGLEWIGSIYYTGNTYYNPSLKSRVTISVDTSKNQFSLKLSSVTAADTAVYYCARVRYGVGVPRYFDPWGQGTLVTVSS
VL: QSVLTQPPSVSGAPGQRVTISCTGSSSNIGAHYDVHWYQQLPGTAPKLLIYGNDNRPSGVPDRFSGSKSGTSASLAITGLQAEDEADYYCQSYDYSLSGYVFGGGTKLTVLG
IC50, HEK Blue SEAP reporter assay with cynomolgus IL-36 on human IL-36 receptor (cy-IL-36α): 0.56 nM
IC50, HEK Blue SEAP reporter assay with cynomolgus IL-36 on human IL-36 receptor (cy-IL-36γ): 1.71 nM
IC50, HEK Blue SEAP reporter assay (hu-IL-36α [2]): 5.7 nM
IC50, HEK Blue SEAP reporter assay (hu-IL-36γ [3]): 7.5 nM

B3: anti-IL-36 multispecific antibody mAb2.10/mAb6_2.7 (bispecific antibody, human IgG1, lambda, N297G)
heavy 1: not shown
heavy 2: not shown
light: ESVLTQPPSVSGAPGQRVTISCTGSSSNIGAHYDVHWYQQLPGTAPKLLIYGNDNRPSGVPDRFSGSKSGTSASLAITGLQAEDEADYYCQSYDYSLSGYVFGGGTKLTVLGQPKAAPSVTLFPPSSEELQANKATLVCLISDFYPGAVTVAWKADSSPVKAGVETTTPSKQSNNKYAASSYLSLTPEQWKSHKSYSCQVTHEGSTVEKTVAPTECS
percent of IL-8 production in HaCat cells inhibited at 8 nM antibody (hu-IL-36β [4]): 100%
percent of IL-8 production in primary human adult keratinocytes inhibited at 8 nM antibody (hu-IL-36β [4]): 100%
percent of IL-8 production in HaCat cells inhibited at 8 nM antibody (hu-IL-36α [5]): 100%
percent of IL-8 production in primary human adult keratinocytes inhibited at 8 nM antibody (hu-IL-36α [5]): 100%
percent of IL-8 production in HaCat cells inhibited at 8 nM antibody (hu-IL-36γ [6]): 100%
percent of IL-8 production in primary human adult keratinocytes inhibited at 8 nM antibody (hu-IL-36γ [6]): 100%

B5: mAb6.0 IgG (antibody, V domains shown)
VH: QLQLQESGPGLVKPSETLSLTCTVSGGSITSSNYYWGWIRQPPGKGLEWIGSIDYTGSTYYNPSLKSRVTISVDTSKNQFSLKLSSVTAADTAVYYCARGKYYETYLGFDVWGQGTLVTVSS
VL: QESVLTQPPSVSGAPGQRVTISCTGSSSNIGAGYDVHWYQQLPGTAPKLLIYGNTNRPSGVPDRFSGSKSGTSASLAITGLQAEDEADYYCQSYDISLSGWVFGGGTKLTVLG
blocking potency relative to the natural antagonist IL-36Ra, HaCat IL-8 assay (hu-IL-36β [4]): 1000 fold
IC50, HEK Blue SEAP reporter assay with cynomolgus IL-36 on human IL-36 receptor (cy-IL-36β): 1.96 nM
IC50, HEK Blue SEAP reporter assay (hu-IL-36β [1]): 0.64 nM

The next lines start with the values.

IC50, HEK Blue SEAP reporter assay (hu-IL-36β [1]): 0.34 nM
B1: mAb8.0 IgG (antibody, V domains shown)
VH: QVQLVQSGAEVKKPGSSVKVSCKASGGTFSNYAISWVRQAPGQGLEWMGGILPILGTVDYAQKFQGRVTITADESTSTAYMELSSLRSEDTAVYYCAREPWYRLGAFDVWGQGTLVTVSS
VL: DIQMTQSPSSLSASVGDRVTITCRASQTIYKYLNWYQQKPGKAPKLLIYAASSLQSGVPSRFSGSGSGTDFTLTISSLQPEDFATYYCQQYSSIPYTFGQGTKVEIK

kon (hu-IL-36β [7]): 850000 M⁻¹ s⁻¹
B4: mAb6_2.6 Fab (Fab, V domains shown)
VH: ELQLQESGPGLVKPSETLSLTCTVSGGSITASNYYWGWIRQPPGKGLEWIGSIDYTGSTYYEPSLKSRVTISVDTSKNQFSLKLSSVTAADTAVYYCATGNYYETYLGFDVWGQGTLVTVSS
VL: ESVLTQPPSVSGAPGQRVTISCTGSSSNIGAHYDVHWYQQLPGTAPKLLIYGNDNRPSGVPDRFSGSKSGTSASLAITGLQAEDEADYYCQSYDYSLSGYVFGGGTKLTVL
notes: Recombinant Fab with 8xHis tag
